Test results: PMC4476739

How the values were obtained:
[1] = target: DS-Cav1, 505-… (design without foldon) (respiratory syncytial virus) (UniProt P03420); assay: ELISA; D25 ELISA on 293T transient expression culture supernatants, 96-well microtiter plate format
[2] = target: DS-Cav1 1-C, foldon removed (respiratory syncytial virus) (UniProt P03420); assay: BLI; fortéBio Octet Red384; RSV F variant captured on motavizumab IgG loaded on anti-human Fc probes; Fab in solution 0.007 to 0.5 μM; 30°C; PBS + 1% BSA; 1:1 fit
[3] = target: RSV F DS-Cav1 with a thrombin cleavage site between RSV F and the foldon, before cleavage (respiratory syncytial virus | bacteriophage T4) (UniProt P03420); assay: SEC; S200 size-exclusion chromatography of purified RSV F variants, before or after removal of the foldon with thrombin; PBS
[4] = target: RSV F DS-Cav1 with C-terminal T4 fibritin foldon (respiratory syncytial virus | bacteriophage T4) (UniProt P03420); assay: as above

D25 antibody as used in the ELISA
D25 ELISA binding titer (OD) [1]: > 2 OD

D25 antigen binding fragment (Fab)
Kd [2]: 0.32 nM

RSV F DS-Cav1 with a thrombin cleavage site between RSV F and the foldon, before cleavage (from UniProt P03420 26-109; P03420 137-511) (domain or fragment)
stoichiometry N [3]: 3

RSV F DS-Cav1 with C-terminal T4 fibritin foldon (from UniProt P03420 26-109; P03420 137-511) (domain or fragment)
stoichiometry N [4]: 3
